This note sets out measurements from article PMC4077652, “An Unstable Th Epitope of P. falciparum Fosters Central Memory T Cells and Anti-CS Antibody Responses” (PLoS ONE, 2014).

Experiment [1] deals with soluble recombinant HLA-DR4 (HLA-DRβ1*04:01) (human). As to the kind of experiment: ELISA. A general note: An ELISA detects its analyte on a solid surface through an enzyme-linked reagent.
The target is the same in experiment [2]. In words: dissociation kinetics (LB3.1 capture, europium-streptavidin time-resolved fluorescence).
Experiment [3] shares this target. In words: ELISA; apparent Kd; direct binding of biotin-labeled peptide to DR4 as in the DR-ELISA (72 h), binding reactions set up with 1 µM HLA-DM.

Where no end group is shown, it is not given here.

As for QNSYSTEWSPCSVT (not fully specified (N-terminus)) [biotin-labeled QNT-Y peptide (QNT-5 analogue L335Y)], the Kd in experiment [1] amounted to 25.5 nM. Besides, in experiment [2], the half-life (in general, the time in which the quantity being followed falls by half) turned out to be 5.77 days and the half-life with HLA-DM was found to be 2590 min. Further, the Kd in experiment [3] stood at 35.7 nM.

Regarding QNSLSTEWSPCSVT (not fully specified (N-terminus)) [biotin-labeled QNT-5 332-345 peptide], the Kd in experiment [1] amounted to 504 nM. Moreover, in experiment [2], the half-life came out at 0.212 days and the half-life with HLA-DM was found to be 105 min. In addition, the Kd in experiment [3] worked out at 714 nM.
